{"source": "the DeepSol protein solubility set", "data": [{"assay": "soluble on expression in E. coli; label from the status in PepcDB or PDB records", "values": [{"sequence": "MGAQSHSLEITSSVSAEKIFSGIVLDVDTVIPKAATGAYKSVEVKGDGGAGTVRIITLPEGSPITTMTVRTDAVNKEALSYDSTVIDGDILLGFIESIETHMVVVPTADGGSITKTTAIFHTKGDAVVPEENIKFADAQNTALFKAIEAYLIAN", "soluble on expression in E. coli": "soluble"}, {"sequence": "MGCAGSTQSQADGSVKKIRKPKPWKHTQPITKAELMKLREEFWDTAPHYGGRKEIWDALRAAAEADISLAQAIVDSAGVIVQNTDLTVCYDERGAKYELPKYVLSEPTNLEEEN", "soluble on expression in E. coli": "not soluble"}, {"sequence": "MGCAQSTPVDQPARQQPQATQQKSVEPAVVKKPVEPARVEPKVEVPSTKPSEVPHVEKAQSINRGQPGDGSGPLQQPSPAMPGAKQGGTKERRAAAGSEAVRDQIRKLAVGGPQAKEEKEKIYEVSDSEDEELEDDPSERTTLSGDWYKPQEVTDAILEALKRNFVFKGIPQNHLVEVVGRMYGISFKSGAVVLQQGALPKQDDCMYYLQQGEAEVVISGGADASKNHGEERKVDGHTVRIPQKPGWLFGDVALLFHSPRTASVVAKTNITVWAMDRRTFLKFVMKHAQGARALRFLRKLPLLKGLSDNDLIRAASRMPQRMYEDGQPLIRIGERGDELFLIRYGKVRVFRPDGNGGRVEVAVLGRGQFVGERAVINDKLRSADCVAQGQVQVVVLKKREFMDLDNPLLAWMLDYDAVSAVIRSLPQFKGLKQEQMENILDRFDAREELMQGDTILNQGDMLEKLYVVKIGEIALFRNDERVEDPNFVHEIAGFSYFGETAITQTGKCPYTIRVASESLHLLSLPKRQVDSFMGRDTGLKNEEAVVAALKKSKFLANMTDPEFKELLKACEQTDYNPGEVIAVANSSVTNKIFLVKSGEVMVVAADLALPDTGEVDVRKLTGSERQRLLAGSIFNDKALNSPETASLEASLVAGTPCGIITFTTSDVERVMGGRAMSRSRNAMPGAAAAVEERKFPRVKFTELEFHRIIGTGQFGLVRVVRNIKTNEVYALKVMHKAPIVESKQIEHVINERKILEEACTHPFCVRLCGAYQDKASLYLLQEWVPGGELFHHLDVEGAFDEPTAMFYAANVLLALEFLHAKGIVYRDLKPENLLLDTQGYIKMADFGFAKYIGGDKTYTICGTPDYQAPEVIMRRGTTKAADYWALGVLIFEMLVGDPPFKSLTGDPWDTFRRTLSGRFYVPNFISDQAADLIFKLLQVNPDKRLGSDKRLGAEEIKRHRWFSRIDWRALEQKKLPSPFRPRVRNPLDTSNFDNFDNVDLEPPPVPADRAEKHSQQWELWDWIDDSK", "soluble on expression in E. coli": "not soluble"}, {"sequence": "MGDSAPARIDTLEIKLLFAGDIMTHGPQIESAKCEGGRVYDFSSSFDTLASRIGAADLAIGNLETTFAGAPYSGYPTFSSPDAMGEALKNAGFDVLTTANNHTADKGKKGIIRTLDMLDSLGIAHTGSYRDIFDRDKMTPLILEVKGVRIAILAYTYGTNGMPVPAPTWVDPIDTVMIKKDLLRADSLGADYRIVQIHWGIEYRKEPDSEQLELARKLHRYGADAIIGSHPHVVQGSQWLKSDSKTSFVIYSMGNFISNQRKPAATRGGMLLSLTLRKVGDRITTHPDYQYVFVNKRTPQGKRVYRLLPVDPFSSDTLPSLPPEEQRDYKEFAKYYQMIPLVLIEREDNRIRNRLQVSQRAFLEHHHHHH", "soluble on expression in E. coli": "not soluble"}, {"sequence": "MGEKEKEFAVIGLGRFGGSICRELAQLGMEVMAIDSDEDKINEFANIASHAVIADSTDEMVLKSLGIRNFDHVVVAIGDNLNSSILTTLILKELGVKNITVKAQNDYHEKVLSKIGADHIVHPERDMGKRIANNIASSNVLDYLELSDEHSIVEIIANKKIDGHSLIELDIRAKFGLNIVAIKRGKEVIVSPRATENIQAGDILIVIGHDDEVDRFKHFLR", "soluble on expression in E. coli": "not soluble"}, {"sequence": "MGEYERTVFTRRITGVETEYGITCVGDNSRRRLGADEAARYMFRPVVEEWGSSNVFIPNGARLYLDVGSHPEYASAECDSLSQLIAYDRAGDKIVDQLAQRAETALATEGIGGRVYLFKNNLDSLGNSYGCHENYLVSRDVVLKTLGRQLLPFLITRQLICGAGSIQDGQFQVSQRADHVWEGVSSATTRSRPIINTRDEPHADSHRFRRLHVIVGDSNMSETTCALKIGSTQLVLEMIEAGALSHDLELSNEIAAIREISRDITGMAPVPLKAGTSMPAIEIQRRYAEKALCWLEQRGDTEGTPNAEMHKVVSLWLDTISAIESNDLQALSRDIDWAIKLSLLRRAQRRIGCSESDFTHPKLAQLDLAYHDIRAGRGVFPVLESKQLVNRWINDTDIEQATRIAPSTTRAALRGEFLTAAKKLQAPISADWLRLKVNRPEPQIIELTDPFENTDDRVDQLISYMRNHAASYSTDTAIS", "soluble on expression in E. coli": "not soluble"}, {"sequence": "MGFTTVAKEEKVTKVAEVFHSVAAKYDIMNDLMSGGIHRLWKRFTIDCSGARPGQRILDLGGGTGDLTAKFSRIVGDQGHVVLADINNSMLNVGRDKLRDNGIVGNVHYVQANAEELPFPDDYFDVITISFCLRNVTDKDKALRSMFRVLKPGGRLLVLEFSKPVLEPLSKVYDAYSFHLLPKMGELVANDAESYRYLAESIRMHPDQETLEGMMQDAGFENTKYYNLTGGIVALHRGLEHHHHHH", "soluble on expression in E. coli": "not soluble"}, {"sequence": "MGGDMLPSVLKDNLRLPVIASPLFIISHPQLTLAQCKAGVIGAFPALNARPESQLDEWLAMITEELAAYNRANPERPAAPFAVNQIVHMSNRRLEHDLGLCVKYKVPVVISSLGAVPEVNAAVHSYGGIVLHDVINDRHARSAIRKGADGLIAVAAGAGGHAGTLSPFALIQEIREWFDGPLLLAGAIANGGSILAAQAMGADMAYIGSPFIATEEARASDGYKQALVDAQAKDIVYSNYFTGVHGNYLKSSIVASGMDPDNLPEADPSKMDFETATGGAKAWKDIWGAGQGIGAIKAVEPVAALVDRLAAEYEAAKGRICAKA", "soluble on expression in E. coli": "not soluble"}, {"sequence": "MGGMTGMNNNAIKVVSVLAIGARERIALVEVGQQQILLGITPSTIRTLHVFDEPVVDAGNAGSSDFARKLQSMIGKSWSAPERKDLEHHHHHH", "soluble on expression in E. coli": "not soluble"}, {"sequence": "MGGNMEDVKMKCGLEIHVQIDTKSKLFCNCSTNYLDAEPNTNVCPVCLGLPGAKPLPPNKKAVEVAIMVAKMLGCKIVVDEDIYFQRKHYDYPDLPSGYQRTSTPIGVDGEFMGIGIHEVHLEEDPGQYNPSFGIVDYNRSGTPLIEIVTKPDIKSPEEAREFLKQLMTLFRYLGCLRGEGTMRADVNISIEYMGVQGNRVEVKNVNSIKGVYKVLKYELIRQKNIIKRGGEVKRETRAFLESQMITKAMRSKETAEDYRYIPDPDIQPIVISEKWVKEIEEKMPETPLAKKKRFVEEYGIDEEDAKVLVSDLDMAEMFEEVVKSLGVNKENVDLAVTWIRNELRRSLQYHKVDLYESGVKAEHIVELIKLIKEGVISQKIAKEIVDLLVINRGKKMPKELVEELGLTVIRDEDALVKAVEEAIKNNPKAVEDYLNGKKEALNFLMGQVMRLTRGRADPKRVIELLKERLDK", "soluble on expression in E. coli": "soluble"}, {"sequence": "MGGSHHHHHHGMASALLDIECFTYLHRALESSIAPIVIFASNRGNCVIRGTEDITSPHGIPLDLLDRVMIIRTMLYTPQEMKQIIKIRAQTEGINISEEALNHLGEIGTKTTLRYSVQLLTPANLLAKINGKDSIEKEHVEEISELFYDAKSSAKILADQQDKYMK", "soluble on expression in E. coli": "not soluble"}, {"sequence": "MGGSHHHHHHGMASALSWKEARCQPAFLKDQARAIRLPPVDACRTQVRHGTGWGREPGILTGWGRRARDPDLGALPPGIQAAFCPGLPRCIEIELVHTAP", "soluble on expression in E. coli": "not soluble"}, {"sequence": "MGGSHHHHHHGMASLGMIKNSLFGSVETWPWQVLSKGDKEEVAYEERACEGGKFATVEVTDKPVDEALREAMPKVAKYAGGTNDKGIGMGMTVPISFAVFPNEDGSLQKKLKVWFRIPNQFQSDPPAPSDKSVKIEEREGITVYSMQFGGYAKEADYVAQATRLRAALEGTATYRGDIYFCTGYDPPMKPYGRRNEIWLLKT", "soluble on expression in E. coli": "not soluble"}, {"sequence": "MGGTLLNISPTQHKILKLLIENEKISMREISEKLSVNMSTVSRNFRSLLESGFALKVEEASPGSSGGRKTALYTANPNKFFILGIGVEQNRLIGVVIDAKGNEVEKSEIHRSFRGDEIVNALVDCVEPFKEKYPNTVGISIGMPGIIKENKVIFSSALGIEDLDLGRILSKEFGTEIFVLNDANAAVVGYGFQKKNVVYFLISVPYYLNQPVGVGAGLWLEGSLYQGSNGAAGEFEIDILPSILSGPATLDEVDLKNLSSDSFLKLLSKLSEVASFVSYLLDPETVIFGGDITLFSPEFHSGLAKNVRDHLEKRHISDVEVLFDERGLWTVAFGAAKAFWKRILEDYEFAGKILK", "soluble on expression in E. coli": "not soluble"}, {"sequence": "MGGVSDERLDLVNERDEVVGQILRTDPALRWERVRVVNAFLRNSQGQLWIPRRSPSKSLFPNALDVSVGGAVQSGETYEEAFRREAREELNVEIDALSWRPLASFSPFQTTLSSFMCVYELRSDATPIFNPNDISGGEWLTPEHLLARIAAGEAAKGDLAELVRRCYREEE", "soluble on expression in E. coli": "soluble"}]}]}
